The target of the assay is T1, hCD22.mmh (human, UniProt P20273 20-687).
T1 construct: Analyte of the Biacore assay; also called Recombinant CD22; human CD22
T1 sequence (looked up): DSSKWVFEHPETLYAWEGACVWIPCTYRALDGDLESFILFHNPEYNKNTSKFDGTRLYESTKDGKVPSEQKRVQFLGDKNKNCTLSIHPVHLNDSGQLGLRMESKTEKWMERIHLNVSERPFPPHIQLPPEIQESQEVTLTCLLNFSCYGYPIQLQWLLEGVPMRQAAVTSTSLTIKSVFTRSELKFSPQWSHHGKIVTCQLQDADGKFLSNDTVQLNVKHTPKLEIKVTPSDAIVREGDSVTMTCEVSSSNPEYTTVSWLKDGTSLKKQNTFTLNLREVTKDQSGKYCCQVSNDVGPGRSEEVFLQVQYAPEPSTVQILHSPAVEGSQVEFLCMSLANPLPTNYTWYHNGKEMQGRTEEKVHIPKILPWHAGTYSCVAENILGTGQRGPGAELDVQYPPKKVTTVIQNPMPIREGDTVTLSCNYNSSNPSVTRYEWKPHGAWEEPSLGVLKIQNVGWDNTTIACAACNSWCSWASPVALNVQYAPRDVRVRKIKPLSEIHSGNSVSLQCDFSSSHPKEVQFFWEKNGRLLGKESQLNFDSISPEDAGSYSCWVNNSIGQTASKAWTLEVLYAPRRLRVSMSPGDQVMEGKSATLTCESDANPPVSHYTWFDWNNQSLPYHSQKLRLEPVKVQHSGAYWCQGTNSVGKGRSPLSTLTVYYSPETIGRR
In words: SPR (Biacore), mAb captured from CHO supernatant on anti-human Fc, 25C pH 7.4. On the technique in general: In SPR one partner is held on a chip, and binding of the other changes the refractive index at the surface.

B1: mAb23 (antibody, V domains shown)
VH: EVQLLESGGGLVQPGGSLRLSCAASGFTFSSYAMTWVRQAPGKGLEWVSTISGSGVSTYSADSVKGRFTISRDNSKNTLYLQMNSLRAEDTAVYYCALHWELLDAFDIWGQGTMVTVSS
VL: EIVLTQSPGTLSLSPGERATLSCRASQSISYNYLAWYQQKPGQAPRLLIYGASSRASGISDRFSGSGSGTDFTLTISRLEPEDFVVYYCQQYGSSPLTFGGGTKVEVK
Regarding B1, binding was characterised by a dissociation constant (Kd) of 160 nM; the dissociation rate constant (koff) (usually the first-order rate constant of dissociation) is 0.0117 s⁻¹; the kon (as a rule, a measure of how fast the partners come together) stood at 73200 M⁻¹ s⁻¹; the t½ (in general, how long it takes for the measured level to halve) is 1 min.

The values are drawn from US20220090060A1 (Regeneron, published 2022).
